The results in this text go back to publication PMC8007706, “Structural and functional analysis of LIM domain-dependent recruitment of paxillin to αvβ3 integrin-positive focal adhesions” (Communications Biology, 2021).

The target of assay [1] is T1, His-tagged talin-head (talin 1–405 aa), N-tagged version (UniProt P26039 1-405).
T1 construct: talin 1, residues 1–405 (head domain); also called TH; N-tagged talin; not shown: His tag, N-terminal, kept
The assay is described as follows: BLI; Octet RED384; biotinylated MBP-LIMs immobilised on streptavidin sensor (biocytin quench); His-tagged talin head in solution at 20, 80, 320, 1250 and 5000 nM; PBS with 1% BSA, 0.1% Tween-20, 0.05% sodium azide; 27 °C, 1000 rpm; biotinylated free MBP sensor subtracted; apparent affinity. To be noted: both partners purified. (BLI is a label-free optical method that tracks binding on a fibre tip over time.)

Assay [2] has as its target T2, His-tagged talin-head (talin 1–405 aa), C-tagged version (UniProt P26039 1-405).
T2 construct: talin 1, residues 1–405 (head domain); also called TH; C-tagged talin; not shown: His tag, C-terminal, kept
Described as above. To be noted: both partners purified.

T2 sequence (P26039 1-405): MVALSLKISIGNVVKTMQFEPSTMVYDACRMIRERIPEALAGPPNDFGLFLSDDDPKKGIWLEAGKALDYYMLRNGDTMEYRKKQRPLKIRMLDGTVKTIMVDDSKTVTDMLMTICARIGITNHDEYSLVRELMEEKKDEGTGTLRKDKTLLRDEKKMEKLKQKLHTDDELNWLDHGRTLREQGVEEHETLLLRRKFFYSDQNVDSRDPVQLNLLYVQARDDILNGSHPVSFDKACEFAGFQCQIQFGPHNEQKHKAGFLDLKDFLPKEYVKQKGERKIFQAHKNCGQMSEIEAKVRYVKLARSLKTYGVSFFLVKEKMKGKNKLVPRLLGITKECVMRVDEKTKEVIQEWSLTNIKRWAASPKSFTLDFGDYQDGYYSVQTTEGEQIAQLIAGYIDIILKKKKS
T1 sequence (P26039 1-405): as above

B1: biotinylated MBP-LIMs (domain or fragment, human, UniProt P49023-2 317-557, looked up)
chain: ATVAKGVCGACKKPIAGQVVTAMGKTWHPEHFVCTHCQEEIGSRNFFERDGQPYCEKDYHNLFSPRCYYCNGPILDKVVTALDRTWHPEHFFCAQCGAFFGPEGFHEKDGKAYCRKDYFDMFAPKCGGCARAILENYISALNTLWHPECFVCRECFTPFVNGSFFEHDGQPYCEVHYHERRGSLCSGCQKPITGRCITAMAKKFHPEHFVCAFCLKQLNKGTFKEQNDKPYCQNCFLKLFC
modifications: biotin (EZ-Link NHS-PEG4-Biotin)
notes: paxillin LIM1-LIM4, human paxillin α; limits as told for the LIMs construct (from residue 317), the MBP constructs being 'analogously produced'; numbered according to P49023-2; also called MBP-tagged and biotinylated LIM domains (LIMs)
For B1, the Kd is 720 nM in assay [1] and 770 nM in assay [2].
